Results published in IntAct's records for PubMed 26524528.

What was measured:
[1] = target: lmnb1_human LMNB1 (UniProt P20700)
[2] = target: lmnb1_human LMNB1 (UniProt P20700); remark: listed apart in the source
[3] = target: lmnb1_human LMNB1 (UniProt P20700); remark: listed apart in the source

| Substance | effect of a mutation on the interaction [1] | effect of a mutation on the interaction [2] | effect of a mutation on the interaction [3] |
| --- | --- | --- | --- |
| Microtubule-associated protein 1 light chain 3 beta (Homo sapiens) (from UniProt Q9GZQ8) G120A | decreasing interaction strength | disrupting interaction strength |  |
| Microtubule-associated protein 1 light chain 3 beta (Homo sapiens) (from UniProt Q9GZQ8) R10A;R11A |  |  | disrupting interaction strength |
